Residue numbers refer to the chain shown, from its start. Read-outs that look alike come from different tables or passages of the source.
Experiments:
EpCAM (KSA) [1] = biological target: T1, EpCAM (KSA) (human, UniProt P16422); test: SPR
T1 chain: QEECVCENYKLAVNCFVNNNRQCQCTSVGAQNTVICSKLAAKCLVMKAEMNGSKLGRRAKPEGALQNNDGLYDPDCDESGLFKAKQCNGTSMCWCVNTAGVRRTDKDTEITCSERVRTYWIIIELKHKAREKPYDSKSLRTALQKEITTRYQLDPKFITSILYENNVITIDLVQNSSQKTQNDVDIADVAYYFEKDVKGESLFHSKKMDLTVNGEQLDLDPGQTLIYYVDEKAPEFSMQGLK

EpCAM (KSA) [2] = biological target: T1, EpCAM (KSA); test: SPR
EpCAM (KSA) [3] = biological target: T1, EpCAM (KSA); test: ELISA
EpCAM (KSA) [4] = biological target: T1, EpCAM (KSA); test: ELISA

B1: VK8/VH7-IL2 (antibody, V domains shown)
VH: QIQLVQSGAEVKKPGETVKISCKASGYTFTNYGMNWVKQTPGKGLKWMGWINTYTGEPTYADDFKGRFAFSLETSTSTAFLQINNLRSEDTATYFCVRFISKGDYWGQGTSVTVSS
VL: EIVLTQSPATLSLSPGERVTLTCSASSSVSYMLWYQQKPGSSPKPWIFDTSNLASGFPARFSGSGSGTSYSLIISSMEAEDAATYYCHQRSGYPYTFGGGTKLEIK
A Kd (EpCAM (KSA) [1]) of 1 nM was found for B1 in this work.

B2: VK8/VH7 (Construct 3) (antibody, V domains shown)
VH: B1 VH
VL: B1 VL
A Kd (EpCAM (KSA) [2]) of 1 nM was found for B2 in this work.

B3: '369 chKS-1/4 (VK0/VH'369) (antibody, V domains shown)
VH: QIQLVQSGPELKKPGETVKISCKASGYTFTNYGMNWVKQTPGKGLKWMGWINTYTGEPTYADDFKGRFAFSLETSASTAFLQIQQPQNMRTMATYFCVRFISKGDYWGQGTSVTVSS
VL: B1 VL with E1Q, V3L, T10I, L11M, L13A, R18K, L21M
B3: no binding (EpCAM (KSA) [3]).

B4: VK0/VH0 (hybridoma chKS-1/4) (antibody, V domains shown)
VH: B1 VH with A9P, V11L, K38R, T40A, A69V, T76A, I83L
VL: B1 VL with E1Q, V3L, T10I, L11M, L13A, R18K, L21M
A Kd (EpCAM (KSA) [2]) of 1 nM was found for B4 in this work.

B5: VK1/VH1-IL2 (antibody, V domains shown)
VH: QIQLVQSGPELKKPGSSVKISCKASGYTFTNYGMNWVRQAPGKGLKWMGWINTYTGEPTYADDFKGRFTITAETSTSTLYLQLNNLRSEDTATYFCVRFMSKGDYWGQGTTVTVSS
VL: QIVLTQSPASLAVSPGQRATITCSASSSVSYILWYQQKPGQPPKPWIFDTSNLASGFPSRFSGSGSGTSYTLTINSLEAEDAATYYCHQRSGYPYTFGGGTKVEIK
A Kd (EpCAM (KSA) [1]) of 7.9 nM was found for B5 in this work.

B6: VK1/VH2-IL2 (antibody, V domains shown)
VH: B5 VH with M100I
VL: B5 VL
A Kd (EpCAM (KSA) [1]) of 3.1 nM was found for B6 in this work.

B7: VK6/VH6 (Construct 1) (antibody, V domains shown)
VH: QVQLVQSGAEVKKPGESVKISCKASGYTFTNYGMNWVRQAPGKGLEWMGWINTYTGEPTYAQKFQGRVTISLDTSTSTAYLQLSSLRAEDTAVYFCVRFISKGDYWGQGTSVTVSS
VL: EIVLTQSPATLSLSPGERVTLTCSASSSVSYMLWYQQKPGQAPKLLIFDTSNLASGIPARFSGSGSGTDYTLTISSLEPEDFAVYYCHQRSGYPYTFGGGTKLEIK
B7: no binding (EpCAM (KSA) [4]).

Source: patent US6969517 (dated 2005)
